Data published in patent publication US20220017620A1 (SHANGHAI FUDAN ZHANGJIANG BIO PHARMACEUTICAL, published 2022).

T1: IgV domain of B7-H3 (human, UniProt Q5ZPR3 30-130)
T1 sequence: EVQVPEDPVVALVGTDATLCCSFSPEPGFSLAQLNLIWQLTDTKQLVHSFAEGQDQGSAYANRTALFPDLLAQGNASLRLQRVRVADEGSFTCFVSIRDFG

T2: 4Ig B7-H3 (soluble human B7-H3 protein with 435 amino acids) (human, UniProt Q5ZPR3 27-461, limits assumed)
T2 construct: also called 4Ig-B7H3 antigen; B7H3/4Ig
T2 sequence: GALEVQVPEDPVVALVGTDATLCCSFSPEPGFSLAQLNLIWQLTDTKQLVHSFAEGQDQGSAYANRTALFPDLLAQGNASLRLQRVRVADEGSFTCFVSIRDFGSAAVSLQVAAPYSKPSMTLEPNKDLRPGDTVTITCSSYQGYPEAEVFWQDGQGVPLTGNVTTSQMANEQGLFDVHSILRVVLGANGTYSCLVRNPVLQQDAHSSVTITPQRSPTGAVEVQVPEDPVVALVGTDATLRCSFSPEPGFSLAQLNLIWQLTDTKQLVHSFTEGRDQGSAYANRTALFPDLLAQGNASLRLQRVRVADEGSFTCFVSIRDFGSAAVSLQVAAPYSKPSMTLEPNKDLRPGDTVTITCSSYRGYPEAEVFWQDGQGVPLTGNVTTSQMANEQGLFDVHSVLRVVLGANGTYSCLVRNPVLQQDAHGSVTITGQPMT

T3: 2Ig B7-H3 (soluble human B7-H3 with 217 amino acids) (human, UniProt Q5ZPR3 29-463)
T3 construct: also called 2IgB7-H3 domain
T3 sequence: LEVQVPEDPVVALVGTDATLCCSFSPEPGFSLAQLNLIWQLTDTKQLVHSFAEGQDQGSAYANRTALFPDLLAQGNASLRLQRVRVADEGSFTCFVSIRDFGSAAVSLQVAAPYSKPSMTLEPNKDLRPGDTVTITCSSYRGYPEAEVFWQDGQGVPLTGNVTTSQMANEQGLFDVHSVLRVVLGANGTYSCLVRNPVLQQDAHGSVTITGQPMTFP

T4: IgC domain of B7-H3 (human, UniProt Q5ZPR3 141-242)
T4 sequence: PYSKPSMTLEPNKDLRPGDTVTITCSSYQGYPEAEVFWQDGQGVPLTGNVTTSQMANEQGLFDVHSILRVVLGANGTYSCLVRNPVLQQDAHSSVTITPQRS

T5: B7-H3 on B7-H3 transfected CHO cells
T5 construct: whole, on cells; also called CHO cells transfected with B7-H3
T5 sequence (Q5ZPR3 1-534, species assumed, looked up): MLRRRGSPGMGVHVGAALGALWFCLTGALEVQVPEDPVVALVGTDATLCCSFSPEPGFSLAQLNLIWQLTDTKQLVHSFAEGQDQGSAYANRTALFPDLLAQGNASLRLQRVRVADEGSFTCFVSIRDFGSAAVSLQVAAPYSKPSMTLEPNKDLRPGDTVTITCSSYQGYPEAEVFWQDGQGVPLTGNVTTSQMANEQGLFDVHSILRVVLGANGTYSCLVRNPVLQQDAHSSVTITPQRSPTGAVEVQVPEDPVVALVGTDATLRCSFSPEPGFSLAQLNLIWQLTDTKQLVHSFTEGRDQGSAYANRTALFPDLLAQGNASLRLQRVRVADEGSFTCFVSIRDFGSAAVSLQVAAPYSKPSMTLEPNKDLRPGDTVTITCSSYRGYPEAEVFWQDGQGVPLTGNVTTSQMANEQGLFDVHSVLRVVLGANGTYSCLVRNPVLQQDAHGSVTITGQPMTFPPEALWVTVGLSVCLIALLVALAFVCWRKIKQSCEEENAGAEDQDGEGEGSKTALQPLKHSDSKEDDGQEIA

T6: antigen B7-H3 (R&D)
T6 construct: construct not described; also called B7-H3 protein; coated B7-H3 protein
T6 sequence (Q5ZPR3 whole entry, species assumed, looked up): T5 sequence (Q5ZPR3 1-534, species assumed, looked up)

B1: P1G2 full-length IgG1 antibody (antibody, V domains shown)
VH: QVQLQQSGAEVKKPGSSVKVSCKASGGTFSSYAISWVRQAPGQGLEWMGRIIPILGIANYAQKFQGRVTITADKSTSTAYMELSSLRSEDTAVYYCAVNYYDSSGYYSDYWGQGTLVTVSS
VL: SYELTQPPSASGSPGQSVTISCTGTSSDVGGYNYVSWYQQHPGKAPRLMIYGVSQRPSGVPDRFSGSKSGNTASLTVSGLQAEDEADYYCSSYANNNYVFGTGTKVTVL
B2: P2E5 full-length IgG1 antibody (antibody, V domains shown)
VH: QVTLKESGGGLVQPGGSLRLSCAASGFTFSNSYMTWVRQAPGMGLEWVASMKPDGSVKHYVDSVKGRFTISRDNTKNSLDLQMNSLRAEDTAVYYCSSYDTRWGWFDPWGEGTLVTVSS
VL: QTVVTQEPSFSVSPGGTVTLTCGLNSGSVSTSYFPSWYQQTPGQAPRTLIYNTNTRSSGVPDRFSGSILGNKAALTITGAQADDESDYYCLLYMDSGPHWVFGGGTKLTVL
notes: also called biotin-P2E5
B3: P1E11 full-length IgG1 antibody (antibody, V domains shown)
VH: not shown
VL: EIVLTQSPLSLPVTLGQPASISCRSSQSLVHSDGNTYLNWFQQRPGQSPRRLIYKVSNRDSGVPDRFSGSGSGTDFTLKISRVEAEDVGFYYCMQGTHWPPGTFGQGTKLEIK
notes: also called biotin-P1E11
B4: P3H6 full-length IgG1 antibody (antibody, V domains shown)
VH: QVQLVQSGAEVKKPGESLKISCKGSGYSFSNYWIGWVRQMPGKGLEWMGIIYPGDSDTRYSPSFQGQVTISADKSISTAYLQWSSLKASDTAMYYCARSRGYPTNYMDVWGRGTTVTVSS
VL: QAVLTQPPSVSGAPRQRVTISCSGSSSNIGNNIVSWYQHLPGKAPRLLIYRERQRPSGVPDRFSGSKSGTSASLAISGLRSEDEADYYCATWDDSLNSWVFGGGTKLTVL

Assays:
IgV domain of B7-H3 [1] = biological target: T1, IgV domain of B7-H3; experiment: ELISA on coated antigen, IgG1 antibody
Method: (§1) Protein binding: 100 μL of antigen B7-H3 (R&D) at 20 ng/ml was coated onto microplate, incubated at 2-8° C. overnight. Subsequently, 100 μL of the prepared full-length IgG1 antibody described above was added with a total of 8 concentrations started from 2000 ng/ml and serially diluted with 3-fold, incubating at 37° C., 600 rpm for 1 hour. After the plate was washed for three times, Goat anti human IgG (Fc)-HRP enzyme-linked antibody was added and the plate was shook at 37° C. and 600 rpm for 1 hour. After the plate was washed for 4 times, TMB chromogenic solution was aliquoted in and incubated for 10 minutes, then 1 mol/L […] stop solution at 100 μL/well was aliquoted to stop the reaction and the absorbance was measured.

[2] = biological target: T2, 4Ig B7-H3 (soluble human B7-H3 protein …); experiment: ELISA on coated antigen, IgG1 antibody
Method: as §1

[3] = biological target: T3, 2Ig B7-H3 (soluble human B7-H3 with 217 …); experiment: ELISA on coated antigen, IgG1 antibody
Method: as §1

IgC domain of B7-H3 = biological target: T4, IgC domain of B7-H3; experiment: ELISA on coated antigen, IgG1 antibody
Method: as §1

[4] = biological target: T2, 4Ig B7-H3 (soluble human B7-H3 protein …); experiment: SPR, BIAcore T200, antibody amine-coupled to the chip, antigen as analyte, 1:1 Langmuir fit
Method: SPR detection was performed with BIAcore T200 (GE) system. Series Sensor Chip CMS and the amine coupling kit for immobilization were purchased from GE.
The B7-H3 antigen was diluted with HBS-EP buffer in a certain proportion to concentration gradients of 0 nM, 0.15625 nM, 0.3125 nM, 0.625 nM, 1.25 nM (two replicates), 2.5 nM, 5 nM, 10 nM, 20 nM, the flow rate was set to 30 μL/min, the binding time was set to 120 s, and the dissociation time was set to 1800 s for sample analysis. For regeneration, Gly-HCl buffer (pH 1.5) could be used as a regeneration buffer, the flow rate was set to 30 μL/min, and regeneration was performed for 30 s. The experiment adopted multi-cycle operation, for the response signal, the analysis time was set as the abscissa and the response value was set as the ordinate. The obtained data was fitted by BIAcore T200 analysis software. The fitting model used was 1:1 Langmuir binding model, and the kinetic constants such as the binding rate constant, the dissociation rate constant, and the binding and dissociation constant were determined.

[5] = biological target: T5, B7-H3 on B7-H3 transfected CHO cells; experiment: cell-based ELISA on B7-H3 transfected CHO-K1 cells
IgV domain of B7-H3 [6] = biological target: T1, IgV domain of B7-H3; experiment: ELISA on B7-H3 domains, IgG1 antibody
Method: as §1

antigen B7-H3 (R&D) = biological target: T6, antigen B7-H3 (R&D); experiment: ELISA on coated B7-H3
Method: as §1

Binder	ELISA signal value (IgV domain of B7-H3 [1]) [elisasignalvalue]	ELISA signal value [2] [elisasignalvalue]	ELISA signal value [3] [elisasignalvalue]	ELISA signal value (IgC domain of B7-H3) [elisasignalvalue]	Kd [4] [pM]	koff [4] [s⁻¹]	kon [4] [M⁻¹ s⁻¹]	EC50 (read off the curve) [5] [µg/mL]	binding result (IgV domain of B7-H3 [6])	EC50 (read off the curve) (antigen B7-H3 (R&D)) [µg/mL]
B1	0.3 to 0.5	1.6 to 3	0.6 to 1.5	0.3 to 0.5	230	0.00167	7.26e+06	–	–	–
B2	0.3 to 0.5	0.6 to 1.5	0.3 to 0.5	0.3 to 0.5	2400	5.9e-05	42500	~0.02	–	–
B3	–	–	1.6 to 3	0.6 to 1.5	24.8	7.76e-05	3.13e+06	–	no binding (tested: ELISA signal value 0.1~0.2)	–
B4	1.6 to 3	–	–	–	–	–	–	–	–	~0.1
